Experimental findings from publication PMC9330637 are described below.

One may read the Kd as the free concentration of one partner at which half of the binding sites on the other are occupied at equilibrium, for simple one-to-one binding.

The target of series [1] is T1, FUS wild-type (UniProt P35637 1-526). Description: fluorescence anisotropy. (Polarisation of emitted light reports the rotation of a fluorescent probe.)
Series [2] concerns the target T1, FUS wild-type. Description: single-molecule fluorescence.
Series [3] has as its target T1, FUS wild-type. Description: single-molecule fluorescence. The source holds these as a separate data set.
A further series deals with FUS Y>S (UniProt P35637 1-526, Y6S;Y14S;Y17S;Y25S;Y33S;Y38S;Y41S;Y50S;Y55S;Y58S;Y66S;Y75S;Y81S;Y91S;Y97S;Y100S; …). Description: single-molecule fluorescence.

Read-outs that look alike come from different tables or passages of the source.

As for UUUUUUUUUUUUUUUUUUUUUUUUUUUUUUUUUUUUUUUU (ssRNA) [U40 RNA], the Kd in the series with FUS wild-type [1] was around 5 nM.

B1: pdU50 RNA (mixed)
RNA 1: UUUUUUUUUUUUUUUUUUUUUUUUUUUUUUUUUUUUUUUUUUUUUUUUUUGCCUCGCUGCCGUCGCCA
RNA 2: UGGCGACGGCAGCGAGGC
With B1, the binding result with FUS wild-type [2] is on record as “binds”.

B2: pdPAR9 (mixed)
DNA 1: TGGCGACGGCAGCGAGGC
DNA 2: GCCTCGCTGCCGTCGCCA
modifications: PAR 9-mer joined to DNA strand 1 by alkyne-azide click; PAR not part of printed strand
For B2, the binding result with FUS wild-type [3] is on record as “binds”.

B3: pdPAR22 (mixed)
DNA 1: TGGCGACGGCAGCGAGGC
DNA 2: GCCTCGCTGCCGTCGCCA
modifications: PAR 22-mer joined to DNA strand 1 by alkyne-azide click; PAR not part of printed strand
Regarding B3, the binding result in the series with FUS wild-type [3] and with FUS Y>S was “binds” each time.
